The nanobody polyreactivity screen of Harvey et al. (2022)

Experiment: yeast display, Sf9 membrane polyspecificity reagent, FACS + sequencing; frameworks hold sequencing errors
Outline: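 Nanobodies came from a synthetic yeast display library in Saccharomyces cerevisiae BJ5465, induced with galactose for 36–48 hours and stained for 1 hour at 4 °C with 10% biotinylated, detergent-solubilized Sf9 membrane reagent. Cells were enriched on streptavidin microbeads and then FACS-sorted, with low and high (top ~1%) gates set on anti-HA fluorescence for expression and streptavidin fluorescence for reagent binding. Each polyreactivity label reflects the gate a clone came from. Genes were amplified by colony PCR, sequenced by MiSeq 2 × 250 and filtered by CDR length.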

QVQLVESGGGLVQAGGSLRLSCAASGFTFDAYDMGWYRQAPGKERELVASITGGGSTYYADSVKGRFTISRDNAKNTVYLQMNSLKPEDTAVYYCAADLYFEGYNRYYHISGFDYWGQGTQVTVSS
polyreactivity (PSR sort gate): low polyreactivity

QVPLVESGGGLLQAGGSLRLSCSASGYTFSKYAMGWYRQAPGKERELVAAISFSGGSTYYADSVKGRFTISRDNAKNTVYLLMNSLKPEDTAVYYCDKYTITNYDYWGQGTLVTVSS
polyreactivity (PSR sort gate): low polyreactivity

QVQLVESGGGLVQAGGSLRLSCAASGSISTVNVMGWYRQAPGKERELVAAISSGTSTHYADSVKVRFTISRDNAKNTVYLQMNSLKPEDTAVYYCAAYFYRQYLYFLYEYDYWGQGTQVTVSS
polyreactivity (PSR sort gate): low polyreactivity

QVQLVESGGGLVQAGGSLRLSCAASGRTFAYYTMGWYRQAPGKERELVAAISWIGGSTYYADSVKGRFTISRDNAKNTVYLQMNSLKPEDTAVYYCNAVGLHWWPGDYWGQGTQVTVSS
polyreactivity (PSR sort gate): low polyreactivity

QVQLVESGGVLVQAGGSLRLSCAASGFTFTPNAMGWYTQAPGKERELVAAIDWNGGSTYYADAVKGRFTISRDNAKNTVYLQMNSLKPEDTAVYYCAADDEEWKVITDYDYWGQGTQVTVSS
polyreactivity (PSR sort gate): low polyreactivity

QVQLVESGGGLVQAGGSLRLSCAASGNTFYGYAMGWYRQAPGKERELVASSTLSGDSTYYADSVKGRFTISRDNAKNTVYLQMNSLKPEDTAVYYCAGVYTYPLGYYHYTYDYWGQGTQVTVSS
polyreactivity (PSR sort gate): low polyreactivity

QVQLVESGGGLVQAGGSLRLSCAASGLIFRVYAMGWYRQAPGKERELVAAITWSDGSTYYADSVKGRFTISRDNAKNTVYLQMNSLKPEDTAVYYCAAEFWYDWDYDYYYWGQGTQVTVSS
polyreactivity (PSR sort gate): high polyreactivity

QVQLVESGGGLVQAGGSLRLSCAASGITFFRYTMGWYRQAPGKEREFVADISRSGDTTYYADSVKGRFTISRDNAKNSVYLQMNSLKPEDTAVYYCARLTRSGEYGYWGQGTQVTVSS
polyreactivity (PSR sort gate): high polyreactivity

QVQLQESGGGLVQAGGSLRLSCAASGSISRYYDMGWYRQAPGKELEFVAGISGGAITYYADSVKGRFTISRDNAKNTVYLQMNSLKPEDTAVYYCAADTGVYQYHSYWGQGTQVTVSS
polyreactivity (PSR sort gate): low polyreactivity

QVQLVESGGGLVQAGGSLRLSCAASGRIFYYYAMGRYRQAPGKERELVAAISWSGGSTYYADSVKGRFTISRDNAKNTVYLQMNSLKPEDTAVYYCAAESRKYREYYYWGQGTQVTVSS
polyreactivity (PSR sort gate): high polyreactivity

QVQLVESGGGLVQAGGSLRLSCAASGFTFSHYAMGWYRQAPGKERELVAAISWGGGSTYYADSVKGRFTISRDNAKNTVYLQMNSLKPEDTAVYYCARDVVYRGYYYGAFVYWGQGTQVTVSS
polyreactivity (PSR sort gate): low polyreactivity

QVQLVESGGGLVQAGGSLRLSCAASGRIFVRNAMGWYRQAPGKEREFVAAISRSGGSTYYAYSVKGRFTISRDNAKNSVYLQMNSLKPEDTAVYYCAADYPKTYTSKFNYWGQGTQVTVSS
polyreactivity (PSR sort gate): high polyreactivity

QVQLVESGGGLVQAGCTLRISCAPSGSIFVYNDMGWSRQAPGKERELVASISNGDNTNYADSVKGRFTISRDNAKNTVYLQMNSLKPEDTAVYYCAADGYIGSVVAYGERDYWGQGTQVTVSS
polyreactivity (PSR sort gate): low polyreactivity

QVQLVESGGGLVQAGGSLRLSCAASGSIYVQNAMGWYRQAPGKERELVAAITFSGVDTYYADSVKGRFTISRDNAKNTVYFQMNSLKPEDTAVYYCNADRGYNLVRRSQAVVEMDYWGQGTQVTVSS
polyreactivity (PSR sort gate): low polyreactivity

QVQLVESGGGLVQAGGSLRLSCAASGRIFTSYAMGWSRQAPGKERELVATISSADGTKYADSVKGRFTISRDNAKNTVYLQMNSLKPEDTAVYYCNAYVWSWNDYWGQGTQVTVSS
polyreactivity (PSR sort gate): low polyreactivity

QVQLVESGGGLVQAGGSLRLSCAASGSIFGGYAMGWYRQAPGKERELVATISYSGDSTYYADSVKGRFTISRDHAKNTVYLQMNSLKPEDTAVDYCATESNGSPYKGDYWGQGTQVTVSS
polyreactivity (PSR sort gate): low polyreactivity

QVQLVESGGGLDQAGGSLRLSCAASGGIFDDYAKGRYRQAPRKERELVAAISSSGGSTYYADSVKGRFTISLDNAKNTVYLQMNSLKPEYTAVYLCNADSRGSFGYWGQGTQVTVSS
polyreactivity (PSR sort gate): high polyreactivity

QVQLVESGGGLVQAGGSLRLSCAASGSIFFLYAMGWYRQAPGKERELVAAISRSGVSTYYADSVKGRFTISRDNAKNTVYLQMNSLKPEDTAVYYCNRRVPVTRSRYYYWGQGTQVTVSS
polyreactivity (PSR sort gate): high polyreactivity

QVQLVESGGGLVQARGTRRLSSAACGRTFGSYAMGWYRQAPGKERELVAAISRSDGSTYYADSVKGRFSISRDNEKNTVYFQMNSLKPEDTAVYYCAAKRWYVSYDYDYWGQGTQVTVSS
polyreactivity (PSR sort gate): high polyreactivity

QVQLVESGGGLVQAGGSLRLICAASGFTINYYVMGWYRQAPGKERELVAAISGRGGSTYYADSVTGRFTISRDNAKNTVYLQMNSLNPEETAVYYCNKVFSIPWQGVRFDFWGQGTQVTVSS
polyreactivity (PSR sort gate): high polyreactivity

QVQLVESGGGLVQAGGTLRLSCAASGSTFGRYAMGWYRQAPGKERELVAAITSDTGNTNYADSVKGRFTISRDNAKNTVYLQMNSLKPEDTAVYYCAARLYARRVYDYWGQGTQVTVSS
polyreactivity (PSR sort gate): low polyreactivity

QGQLVESGGGLVQAGGSLLLSCAASGRIFTGKAMGWSRQAPGKERELGAAIDWSGGSTYYADSVKGRFTISRDNAKNTVYLQMNSLKPEDTAVYYCNATYSNSAVGYLGFDYWGQGTQVTVSS
polyreactivity (PSR sort gate): low polyreactivity

QVQLVESGGALVQAGGSLRLSCAYSGLTFYGNTMGWYRQAPGKERELDAAITYSGTRTYYADSVKGRFTISRDTAKNTVYLQMNSLKPEDTAVYYCNALSYANSIDTYDYWGQVTQVTVSS
polyreactivity (PSR sort gate): high polyreactivity

QVQLVESGGGLVQAGGSLRLSCAASGSTFGFNAMGWYRQAPGKERELVAAIRGGDSTNYADSVKGRFTISRDNAKNTVYLQMNSLKPEDTAVYYCAAVLRYVVRPYSYWSGGYDYWGQGTQVTVSS
polyreactivity (PSR sort gate): high polyreactivity

QVQLVESGGGLVQAGGSLRLSCAASGSTFFEYAMGWYRKAPGKEREFVAGISWSGGITYYADSVKGRFTISRDNAKNTVYLQMNSLKPEDTAVYYCATAGGDWYGVDYWGQGTQVTVSS
polyreactivity (PSR sort gate): low polyreactivity

QVQLVESGGGLVQAGGSLRLIWAASGFTFWLNAMGWYRQAPGKERELVAAINWSGGSTYYADSVKGRFTISRDNAKNTVYLLMNILKPEDTAVYYCNRRGQYTFWPIHEYWGQGTQVTVSS
polyreactivity (PSR sort gate): high polyreactivity

QVQLVESGGGLVQAGGSLRLSCAASGRIFSYNAMGWYRQAPGKERELVAAITGGGSTNYADSVQGRFTISRDNAKNTVYLHMTSLKPEDTAVYYCAADARGYGYYYWGQGTQVTVSS
polyreactivity (PSR sort gate): high polyreactivity

QVQLVESGGGLVQAGGSLRLSCAASGRTFFGNAMGWYRQAPGKERELVAVISQGGGSTYYADSVKGRFTISRDNAKNTVYLQMNSLKPEDTAVYYCAKRYPHVGSGQLGGTYNYWGQGTQVTVSS
polyreactivity (PSR sort gate): low polyreactivity

QVQLVESGGGLVQAGGSLRLSCAASGRIFSGYAMGWDRQAPGKERELVAAITSRSGSTYYADSVKGRFTISRDNAKNTVYLQMNSLKPEDTAVYYCAKRLYKPGNVFYSVDQSDYWGQGTQVTVSS
polyreactivity (PSR sort gate): low polyreactivity

QVQLVESGGGIVQAGGSLRLSCAASGIIFPYYAMGWYRQAPGKVRELVAAISSSGGSTHYADSVKGRFTISRDTAKNTVYLQMHSLKPEDTAVYYCAARDINRYPKAQPTDRSIYYWRQGTQVTVSS
polyreactivity (PSR sort gate): high polyreactivity

QVQLVESGGGLVQAGGSLRLSCAASGITFEGYAMGWYRQAPGKEREFVAAITGSGSTTYYADSVKGRFTITRDNAKNTVYLQMNSLKPEDTAVYYCVAYVGSTYSAPEYYWGQGTQVTVSS
polyreactivity (PSR sort gate): low polyreactivity
